Laboratory results reported in US20140193401A1 (published 2014).

Assays:
[1] = molecular target: T1, PTx-S1-220 E16A (Bordetella pertussis, UniProt P04977 35-254); experiment: SPR (BIAcore 3000), mAb 1B7 immobilised on CM5 chip, toxin injected
T1 chain: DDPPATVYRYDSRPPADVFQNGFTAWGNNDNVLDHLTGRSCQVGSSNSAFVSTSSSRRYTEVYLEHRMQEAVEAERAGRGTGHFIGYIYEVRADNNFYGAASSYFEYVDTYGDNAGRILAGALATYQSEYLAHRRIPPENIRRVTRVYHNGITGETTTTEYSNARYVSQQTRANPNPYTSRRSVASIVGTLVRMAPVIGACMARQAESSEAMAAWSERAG

[2] = molecular target: T2, PTx-S1-220 R39A (Bordetella pertussis, UniProt P04977 35-254); experiment: as above
T2 chain: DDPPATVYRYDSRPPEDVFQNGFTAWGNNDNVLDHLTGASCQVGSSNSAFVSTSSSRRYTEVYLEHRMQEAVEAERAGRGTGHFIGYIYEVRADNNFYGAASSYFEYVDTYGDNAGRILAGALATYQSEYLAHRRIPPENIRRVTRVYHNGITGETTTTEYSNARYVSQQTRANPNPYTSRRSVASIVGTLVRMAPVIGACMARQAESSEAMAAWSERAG

[3] = molecular target: T3, PTx-S1-220 T81A (Bordetella pertussis, UniProt P04977 35-254); experiment: as above
T3 chain: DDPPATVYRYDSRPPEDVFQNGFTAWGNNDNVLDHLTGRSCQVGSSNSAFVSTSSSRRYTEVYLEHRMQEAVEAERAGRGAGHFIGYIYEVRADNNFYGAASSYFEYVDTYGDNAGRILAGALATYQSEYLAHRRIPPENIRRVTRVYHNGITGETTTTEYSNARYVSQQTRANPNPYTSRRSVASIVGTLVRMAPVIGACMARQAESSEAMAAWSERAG

[4] = molecular target: T4, PTx-S1-220 (truncated PTx-S1, residues 1-220, strain Tohama I, variant B) (Bordetella pertussis, UniProt P04977 35-254); experiment: as above
T4 construct: also called WT PTx-S1-220; PTx-S1B
T4 sequence: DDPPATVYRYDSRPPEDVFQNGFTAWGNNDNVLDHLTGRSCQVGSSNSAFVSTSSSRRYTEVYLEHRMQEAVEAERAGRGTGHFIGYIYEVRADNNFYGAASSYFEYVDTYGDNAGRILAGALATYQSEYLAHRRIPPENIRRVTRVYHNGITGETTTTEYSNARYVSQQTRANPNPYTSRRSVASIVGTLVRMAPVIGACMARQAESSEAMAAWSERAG

[5] = molecular target: T5, PTx-S1-220 R79A (Bordetella pertussis, UniProt P04977 35-254); experiment: as above
T5 chain: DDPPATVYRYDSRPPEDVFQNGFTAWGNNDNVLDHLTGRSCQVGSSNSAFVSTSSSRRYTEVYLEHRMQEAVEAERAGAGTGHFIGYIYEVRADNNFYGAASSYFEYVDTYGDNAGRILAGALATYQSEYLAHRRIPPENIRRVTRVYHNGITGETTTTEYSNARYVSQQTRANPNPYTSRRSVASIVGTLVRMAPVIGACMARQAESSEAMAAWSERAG

[6] = molecular target: T6, PTx-S1-220 Y148A (Bordetella pertussis, UniProt P04977 35-254); experiment: as above
T6 chain: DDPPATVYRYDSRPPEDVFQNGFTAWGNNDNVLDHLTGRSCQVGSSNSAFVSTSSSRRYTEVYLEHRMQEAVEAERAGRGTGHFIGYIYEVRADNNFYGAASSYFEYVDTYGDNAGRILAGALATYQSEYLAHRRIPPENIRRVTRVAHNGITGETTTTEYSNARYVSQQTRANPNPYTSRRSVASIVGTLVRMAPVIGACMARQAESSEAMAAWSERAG

[7] = molecular target: T7, PTx-S1-220 N176A (Bordetella pertussis, UniProt P04977 35-254); experiment: as above
T7 chain: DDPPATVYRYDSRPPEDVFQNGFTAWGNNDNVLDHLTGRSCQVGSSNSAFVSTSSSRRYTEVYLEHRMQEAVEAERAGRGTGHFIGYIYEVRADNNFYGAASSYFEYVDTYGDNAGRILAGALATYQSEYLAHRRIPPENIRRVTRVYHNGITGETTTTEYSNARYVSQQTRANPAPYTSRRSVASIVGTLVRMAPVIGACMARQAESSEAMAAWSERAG

[8] = molecular target: T8, PTx-S1-220 T159A (Bordetella pertussis, UniProt P04977 35-254); experiment: as above
T8 chain: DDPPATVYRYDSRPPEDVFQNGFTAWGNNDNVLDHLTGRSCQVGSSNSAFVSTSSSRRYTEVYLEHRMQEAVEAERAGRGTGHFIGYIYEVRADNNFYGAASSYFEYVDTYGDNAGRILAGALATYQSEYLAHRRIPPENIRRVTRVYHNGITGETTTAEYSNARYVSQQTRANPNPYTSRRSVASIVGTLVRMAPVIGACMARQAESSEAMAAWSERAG

[9] = molecular target: T9, PTx-S1-220 R146A (Bordetella pertussis, UniProt P04977 35-254); experiment: as above
T9 chain: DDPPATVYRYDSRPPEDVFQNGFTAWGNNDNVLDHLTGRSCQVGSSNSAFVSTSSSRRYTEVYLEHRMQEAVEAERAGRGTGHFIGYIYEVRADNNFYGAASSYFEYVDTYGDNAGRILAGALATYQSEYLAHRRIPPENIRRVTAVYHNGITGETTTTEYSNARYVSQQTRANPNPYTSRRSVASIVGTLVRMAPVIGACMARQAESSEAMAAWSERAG

[10] = molecular target: T10, pertussis toxin holotoxin (Bordetella pertussis, UniProt P04977 35-269; P04978 31-226; P04979 32-227; P0A3R5 43-152; P04981 36-133); experiment: competition ELISA (Friguet), 5 nM antibody with PT in solution, coated PT
T10 construct: also called PTx; PT

B1: murine monoclonal antibody 1B7 (antibody, V domains shown)
VH: EVQLQQSGSELVRPGASVKLSCKASGYKFTSYWMHWVKQRPGQGLEWIGNIFPGSGSTNYDEKFNSKATLTVDTSSNTAYMQLSSLTSEDSAVYYCTRWLSGAYFDYWGQGTTLTVSS
VL: DIQMTQSPALMSASPGEKVTMTCSASSSVSFMYWYQQKPRSSPKPWIYLTSNLPSGVPARFSGSGSGTSYSLTISSMEAEDAATYYCQQWSSHPPTFGSGTKLEIKR
notes: also called mAb 1B7; 1B7 mAb
koff [1]: 0.0016 s⁻¹
koff [2]: 0.003 s⁻¹
koff [3]: 0.0017 s⁻¹
koff [4]: 0.0014 s⁻¹
koff [5]: 0.025 s⁻¹
koff [6]: 0.029 s⁻¹
koff [7]: 0.0011 s⁻¹
koff [8]: 0.0014 s⁻¹
koff [9]: 0.0015 s⁻¹
Kd [10]: 1.1 nM
